Here are results for 1 substance from paper PMC7873564.

The test has as its target mouse IgMκ paraprotein TEPC183. As to the kind of experiment: flow cytometry on cells. The conditions noted are these: mean ± 1 SD from three independent experiments; parent: est. 3.7; read off a plot. (Flow cytometry measures light scatter and fluorescence of single cells or particles in a stream.)

In the case of “human IgM Fc receptor (FcµR), wild type (from UniProt O60667-1) N66del”, the response (MFI index (x10^2)) amounted to 2.1.
